Biological target: the molecule itself
Assay: SEC

B1: human TRPC3 (hTRPC3) channel, GFP-MBP-tagged (natural protein, UniProt Q13507 86-921, looked up)
chain: MREKGRRQAVRGPAFMFNDRGTSLTAEEERFLDAAEYGNIPVVRKMLEESKTLNVNCVDYMGQNALQLAVGNEHLEVTELLLKKENLARIGDALLLAISKGYVRIVEAILNHPGFAASKRLTLSPCEQELQDDDFYAYDEDGTRFSPDITPIILAAHCQKYEVVHMLLMKGARIERPHDYFCKCGDCMEKQRHDSFSHSRSRINAYKGLASPAYLSLSSEDPVLTALELSNELAKLANIEKEFKNDYRKLSMQCKDFVVGVLDLCRDSEEVEAILNGDLESAEPLEVHRHKASLSRVKLAIKYEVKKFVAHPNCQQQLLTIWYENLSGLREQTIAIKCLVVLVVALGLPFLAIGYWIAPCSRLGKILRSPFMKFVAHAASFIIFLGLLVFNASDRFEGITTLPNITVTDYPKQIFRVKTTQFTWTEMLIMVWVLGMMWSECKELWLEGPREYILQLWNVLDFGMLSIFIAAFTARFLAFLQATKAQQYVDSYVQESDLSEVTLPPEIQYFTYARDKWLPSDPQIISEGLYAIAVVLSFSRIAYILPANESFGPLQISLGRTVKDIFKFMVLFIMVFFAFMIGMFILYSYYLGAKVNAAFTTVEESFKTLFWSIFGLSEVTSVVLKYDHKFIENIGYVLYGIYNVTMVVVLLNMLIAMINSSYQEIEDDSDVEWKFARSKLWLSYFDDGKTLPPPFSLVPSPKSFVYFIMRIVNFPKCRRRRLQKDIEMGMGNSKSRLNLFTQSNSRVFESHSFNSILNQPTRYQQIMKRLIKRYVLKAQVDKENDEVNEGELKEIKQDISSLRYELLEDKSQATEELAILIHKLSEKLNPSMLRCE
For B1, the “stoichiometry N” value was 4.
